Data as given in the array DNA melting data of Ke et al..

Test: melting temperature; melt of duplexes
Settings: sodium 0.0675 M; strand 1 µM

“CGACGTGCGAAATGTGCTG+CAGCACATCGCGCACGTCG (((((((((..((((((((+))))))))..)))))))))” gave a Tm of 53.8 °C.
For “CGACGTGCTTTATGTGCTG+CAGCACATGAAGCACGTCG ((((((((((.((((((((+)))))))).))))))))))”, the Tm was 57.3 °C.
“CGACGTGCGGTATGTGCTG+CAGCACATAGAGCACGTCG ((((((((..(((((((((+)))))))))..))))))))” gave a Tm of 56 °C.
In the case of “CGACGTGCTCGATGTGCTG+CAGCACATGACGCACGTCG ((((((((...((((((((+))))))))...))))))))”, the Tm is reported as 47.4 °C.
With “CGACGTGCACTATGTGCTG+CAGCACATTAGGCACGTCG ((((((((...((((((((+))))))))...))))))))” the Tm was 46.4 °C.
“CGACGTGCAGGATGTGCTG+CAGCACATCATGCACGTCG (((((((((.(((((((((+))))))))).)))))))))” gave a Tm of 60.2 °C.
In the case of “CGACGTGCATAATGTGCTG+CAGCACATGAGGCACGTCG ((((((((.(.((((((((+)))))))).).))))))))”, the Tm is reported as 53.2 °C.
“CGACGTGCGTTATGTGCTG+CAGCACATGACGCACGTCG ((((((((((.((((((((+)))))))).))))))))))” gave a Tm of 58.9 °C.
For “CGACGTGCCTCATGTGCTG+CAGCACATCCCGCACGTCG ((((((((...((((((((+))))))))...))))))))”, the Tm was 46.5 °C.
Substance “CGACGTGCACAATGTGCTG+CAGCACATTTGGCACGTCG ((((((((..(((((((((+)))))))))..))))))))” has a Tm of 51.2 °C.
With “CGACGTGCACAATGTGCTG+CAGCACATCTCGCACGTCG ((((((((...((((((((+))))))))...))))))))” the Tm was 45.1 °C.
“CGACGTGCGGCATGTGCTG+CAGCACATAAGGCACGTCG ((((((((...((((((((+))))))))...))))))))” gave a Tm of 51.3 °C.
Substance “CGACGTGCTTCATGTGCTG+CAGCACATGTAGCACGTCG (((((((((.(((((((((+))))))))).)))))))))” has a Tm of 57 °C.
In the case of “CGACGTGCACAATGTGCTG+CAGCACATCCGGCACGTCG ((((((((...((((((((+))))))))...))))))))”, the Tm is reported as 46.1 °C.
Work on “CGACGTGCATTATGTGCTG+CAGCACATAAAGCACGTCG ((((((((.((((((((((+)))))))))).))))))))” yielded a Tm of 54.6 °C.
For “CGACGTGCCGCATGTGCTG+CAGCACATGTAGCACGTCG ((((((((..(((((((((+)))))))))..))))))))”, the Tm was 54.4 °C.
“CGACGTGCGGGATGTGCTG+CAGCACATATCGCACGTCG (((((((((..((((((((+))))))))..)))))))))” showed a Tm of 56.7 °C.
With “CGACGTGCCAGATGTGCTG+CAGCACATACCGCACGTCG ((((((((...((((((((+))))))))...))))))))” the Tm was 47.6 °C.
Work on “CGACGTGCGGGATGTGCTG+CAGCACATCATGCACGTCG ((((((((..(((((((((+)))))))))..))))))))” yielded a Tm of 57 °C.
“CGACGTGCCGTATGTGCTG+CAGCACATATCGCACGTCG ((((((((..(((((((((+)))))))))..))))))))” gave a Tm of 51.8 °C.
“CGACGTGCTTTATGTGCTG+CAGCACATAGGGCACGTCG ((((((((..(((((((((+)))))))))..))))))))” showed a Tm of 51.1 °C.
Substance “CGACGTGCTTCATGTGCTG+CAGCACATAGCGCACGTCG ((((((((...((((((((+))))))))...))))))))” has a Tm of 47.4 °C.
“CGACGTGCACTATGTGCTG+CAGCACATACGGCACGTCG ((((((((..(((((((((+)))))))))..))))))))” showed a Tm of 46 °C.
For “CGACGTGCAATATGTGCTG+CAGCACATCCGGCACGTCG ((((((((...((((((((+))))))))...))))))))”, the Tm was 48.5 °C.
In the case of “CGACGTGCGCTATGTGCTG+CAGCACATCCGGCACGTCG ((((((((...((((((((+))))))))...))))))))”, the Tm is reported as 48.1 °C.
In the case of “CGACGTGCATTATGTGCTG+CAGCACATCAGGCACGTCG ((((((((.(.((((((((+)))))))).).))))))))”, the Tm is reported as 49.9 °C.
Substance “CGACGTGCGATATGTGCTG+CAGCACATATGGCACGTCG ((((((((.((((((((((+)))))))))).))))))))” has a Tm of 56.5 °C.
Work on “CGACGTGCTGAATGTGCTG+CAGCACATAATGCACGTCG ((((((((...((((((((+))))))))...))))))))” yielded a Tm of 51 °C.
“CGACGTGCATAATGTGCTG+CAGCACATTCGGCACGTCG ((((((((..(((((((((+)))))))))..))))))))” gave a Tm of 51.8 °C.
Substance “CGACGTGCGGGATGTGCTG+CAGCACATTAAGCACGTCG ((((((((...((((((((+))))))))...))))))))” has a Tm of 53.9 °C.
For “CGACGTGCTTGATGTGCTG+CAGCACATCGAGCACGTCG (((((((((.(((((((((+))))))))).)))))))))”, the Tm was 60.6 °C.
“CGACGTGCTGCATGTGCTG+CAGCACATCCGGCACGTCG ((((((((.(.((((((((+)))))))).).))))))))” showed a Tm of 51.9 °C.
Work on “CGACGTGCTACATGTGCTG+CAGCACATCTGGCACGTCG ((((((((.(.((((((((+)))))))).).))))))))” yielded a Tm of 49.9 °C.
With “CGACGTGCAACATGTGCTG+CAGCACATCCGGCACGTCG ((((((((...((((((((+))))))))...))))))))” the Tm was 47.7 °C.
In the case of “CGACGTGCATGATGTGCTG+CAGCACATGGAGCACGTCG ((((((((...((((((((+))))))))...))))))))”, the Tm is reported as 50.1 °C.
In the case of “CGACGTGCGTGATGTGCTG+CAGCACATATGGCACGTCG ((((((((...((((((((+))))))))...))))))))”, the Tm is reported as 50 °C.
Substance “CGACGTGCTGTATGTGCTG+CAGCACATCCAGCACGTCG ((((((((((.((((((((+)))))))).))))))))))” has a Tm of 55.5 °C.
In the case of “CGACGTGCCTTATGTGCTG+CAGCACATTTTGCACGTCG ((((((((...((((((((+))))))))...))))))))”, the Tm is reported as 47.9 °C.
For “CGACGTGCGATATGTGCTG+CAGCACATGGAGCACGTCG ((((((((...((((((((+))))))))...))))))))”, the Tm was 57.4 °C.
In the case of “CGACGTGCAGAATGTGCTG+CAGCACATCCTGCACGTCG ((((((((((.((((((((+)))))))).))))))))))”, the Tm is reported as 57.4 °C.
Work on “CGACGTGCGGTATGTGCTG+CAGCACATGGCGCACGTCG (((((((((..((((((((+))))))))..)))))))))” yielded a Tm of 59.9 °C.
With “CGACGTGCGTTATGTGCTG+CAGCACATTAGGCACGTCG ((((((((.(.((((((((+)))))))).).))))))))” the Tm was 52.2 °C.
Substance “CGACGTGCGTGATGTGCTG+CAGCACATGATGCACGTCG ((((((((.(.((((((((+)))))))).).))))))))” has a Tm of 54 °C.
Work on “CGACGTGCCCAATGTGCTG+CAGCACATCGAGCACGTCG ((((((((.(.((((((((+)))))))).).))))))))” yielded a Tm of 50.3 °C.
For “CGACGTGCACCATGTGCTG+CAGCACATCCGGCACGTCG ((((((((...((((((((+))))))))...))))))))”, the Tm was 42.7 °C.
Substance “CGACGTGCATGATGTGCTG+CAGCACATAACGCACGTCG ((((((((.(.((((((((+)))))))).).))))))))” has a Tm of 49.3 °C.
For “CGACGTGCGTTATGTGCTG+CAGCACATGGAGCACGTCG ((((((((...((((((((+))))))))...))))))))”, the Tm was 54.8 °C.
Work on “CGACGTGCGTTATGTGCTG+CAGCACATGCGGCACGTCG ((((((((...((((((((+))))))))...))))))))” yielded a Tm of 49.6 °C.
For “CGACGTGCTTTATGTGCTG+CAGCACATTTGGCACGTCG ((((((((...((((((((+))))))))...))))))))”, the Tm was 50.1 °C.
Work on “CGACGTGCTCTATGTGCTG+CAGCACATCCGGCACGTCG ((((((((...((((((((+))))))))...))))))))” yielded a Tm of 48.4 °C.
“CGACGTGCGTTATGTGCTG+CAGCACATCGCGCACGTCG (((((((((..((((((((+))))))))..)))))))))” showed a Tm of 54.6 °C.
Work on “CGACGTGCGTAATGTGCTG+CAGCACATCTTGCACGTCG ((((((((...((((((((+))))))))...))))))))” yielded a Tm of 49.7 °C.
Substance “CGACGTGCTCCATGTGCTG+CAGCACATATGGCACGTCG ((((((((...((((((((+))))))))...))))))))” has a Tm of 49 °C.
For “CGACGTGCTCTATGTGCTG+CAGCACATCAAGCACGTCG (((((((((..((((((((+))))))))..)))))))))”, the Tm was 51.1 °C.
Work on “CGACGTGCGATATGTGCTG+CAGCACATGTAGCACGTCG ((((((((.(.((((((((+)))))))).).))))))))” yielded a Tm of 54.9 °C.
“CGACGTGCAATATGTGCTG+CAGCACATGGAGCACGTCG ((((((((...((((((((+))))))))...))))))))” showed a Tm of 51 °C.
Substance “CGACGTGCAGAATGTGCTG+CAGCACATCAGGCACGTCG ((((((((...((((((((+))))))))...))))))))” has a Tm of 51.1 °C.
For “CGACGTGCGGAATGTGCTG+CAGCACATTAAGCACGTCG ((((((((..(((((((((+)))))))))..))))))))”, the Tm was 55.8 °C.
“CGACGTGCAGTATGTGCTG+CAGCACATACCGCACGTCG ((((((((.((((((((((+)))))))))).))))))))” gave a Tm of 55.7 °C.
For “CGACGTGCTCGATGTGCTG+CAGCACATCGGGCACGTCG ((((((((.((((((((((+)))))))))).))))))))”, the Tm was 62.2 °C.
Work on “CGACGTGCTAAATGTGCTG+CAGCACATCTTGCACGTCG ((((((((.(.((((((((+)))))))).).))))))))” yielded a Tm of 50.1 °C.
With “CGACGTGCGAAATGTGCTG+CAGCACATGTCGCACGTCG ((((((((((.((((((((+)))))))).))))))))))” the Tm was 58.9 °C.
In the case of “CGACGTGCTCAATGTGCTG+CAGCACATATAGCACGTCG (((((((((..((((((((+))))))))..)))))))))”, the Tm is reported as 51.5 °C.
In the case of “CGACGTGCCAGATGTGCTG+CAGCACATCCCGCACGTCG ((((((((..(((((((((+)))))))))..))))))))”, the Tm is reported as 53.3 °C.
Work on “CGACGTGCATCATGTGCTG+CAGCACATTTGGCACGTCG ((((((((...((((((((+))))))))...))))))))” yielded a Tm of 48.2 °C.
With “CGACGTGCAATATGTGCTG+CAGCACATATGGCACGTCG ((((((((.((((((((((+)))))))))).))))))))” the Tm was 55.6 °C.
Substance “CGACGTGCTATATGTGCTG+CAGCACATAGGGCACGTCG ((((((((..(((((((((+)))))))))..))))))))” has a Tm of 53.2 °C.
For “CGACGTGCACTATGTGCTG+CAGCACATCTCGCACGTCG ((((((((...((((((((+))))))))...))))))))”, the Tm was 41.6 °C.
For “CGACGTGCGTCATGTGCTG+CAGCACATTTTGCACGTCG ((((((((...((((((((+))))))))...))))))))”, the Tm was 48.4 °C.
For “CGACGTGCTGGATGTGCTG+CAGCACATCGTGCACGTCG ((((((((..(((((((((+)))))))))..))))))))”, the Tm was 53.2 °C.
With “CGACGTGCACTATGTGCTG+CAGCACATTGCGCACGTCG ((((((((.(.((((((((+)))))))).).))))))))” the Tm was 48.8 °C.
“CGACGTGCTTGATGTGCTG+CAGCACATGCTGCACGTCG ((((((((...((((((((+))))))))...))))))))” gave a Tm of 48.1 °C.
